According to patent publication US10611814 (GEMOAB MONOCLONALS, dated 2020):
One block for each binder: values may come before it.

How the values were obtained:
Test in all cases: cell-based or functional assay
[1] = target: CD33 antigen (UniProt P20138 18-364, limits assumed)
[2] = target: CD123 antigen (UniProt P26951 19-378, limits assumed)
[3] = target: prostate membrane antigen (UniProt Q04609 1-750, limits assumed)
[4] = target: T1, prostate stem cell antigen (UniProt O43653 12-83, limits assumed)
T1 sequence (looked up): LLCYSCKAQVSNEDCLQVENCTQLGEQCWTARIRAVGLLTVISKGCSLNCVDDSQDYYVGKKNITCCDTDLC

Sequence of CD33 antigen (P20138 18-364 limits assumed): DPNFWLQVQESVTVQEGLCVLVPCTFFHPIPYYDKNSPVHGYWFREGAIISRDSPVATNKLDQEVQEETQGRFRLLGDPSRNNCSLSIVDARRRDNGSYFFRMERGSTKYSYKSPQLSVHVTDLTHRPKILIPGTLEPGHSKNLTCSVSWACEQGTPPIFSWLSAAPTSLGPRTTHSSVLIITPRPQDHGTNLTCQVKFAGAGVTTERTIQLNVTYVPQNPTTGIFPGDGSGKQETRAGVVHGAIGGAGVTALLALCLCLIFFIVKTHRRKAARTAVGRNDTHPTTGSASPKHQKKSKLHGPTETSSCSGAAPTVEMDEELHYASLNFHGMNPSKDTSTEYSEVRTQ
Sequence of CD123 antigen (P26951 19-378 limits assumed): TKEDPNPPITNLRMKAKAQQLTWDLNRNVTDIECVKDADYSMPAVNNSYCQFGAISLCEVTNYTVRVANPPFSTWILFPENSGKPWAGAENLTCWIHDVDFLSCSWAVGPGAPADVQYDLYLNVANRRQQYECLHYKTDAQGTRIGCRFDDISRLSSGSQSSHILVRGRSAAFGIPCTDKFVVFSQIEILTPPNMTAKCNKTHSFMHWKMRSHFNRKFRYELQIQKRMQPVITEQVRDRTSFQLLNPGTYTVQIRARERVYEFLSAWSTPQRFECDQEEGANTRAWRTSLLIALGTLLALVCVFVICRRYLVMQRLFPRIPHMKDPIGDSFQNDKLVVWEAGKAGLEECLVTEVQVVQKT
Sequence of prostate membrane antigen (Q04609 whole entry): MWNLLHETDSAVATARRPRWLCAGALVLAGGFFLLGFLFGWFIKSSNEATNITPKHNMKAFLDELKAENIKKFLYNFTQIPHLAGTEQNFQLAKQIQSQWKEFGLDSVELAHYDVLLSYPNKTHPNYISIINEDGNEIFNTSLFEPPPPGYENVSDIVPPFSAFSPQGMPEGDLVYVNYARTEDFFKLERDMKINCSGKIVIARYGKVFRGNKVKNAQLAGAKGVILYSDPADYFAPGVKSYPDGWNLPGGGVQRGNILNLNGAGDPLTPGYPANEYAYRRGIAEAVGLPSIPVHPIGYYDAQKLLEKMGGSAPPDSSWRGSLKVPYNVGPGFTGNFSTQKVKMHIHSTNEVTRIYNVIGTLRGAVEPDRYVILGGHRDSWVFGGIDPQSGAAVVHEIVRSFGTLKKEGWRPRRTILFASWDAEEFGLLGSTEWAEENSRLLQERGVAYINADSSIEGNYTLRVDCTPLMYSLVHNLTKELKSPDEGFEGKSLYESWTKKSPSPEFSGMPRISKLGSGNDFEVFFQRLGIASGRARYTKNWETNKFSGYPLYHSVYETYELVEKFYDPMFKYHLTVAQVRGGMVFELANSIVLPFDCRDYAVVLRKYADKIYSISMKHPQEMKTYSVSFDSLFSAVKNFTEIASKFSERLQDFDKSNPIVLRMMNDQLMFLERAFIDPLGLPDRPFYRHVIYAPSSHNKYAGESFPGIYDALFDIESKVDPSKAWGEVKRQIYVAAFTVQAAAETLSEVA

- EC50, lysis of MOLM-13 by UniCAR T cells, e:t 1:1 [1]: 137 pmol
B1: target module specific for CD33 (scFv)
scFv: DAAQPAGSDIVLTQSPASLAVSPGQRATITCTASSSVNYIHWYQQKPGQPPKLLIYDTSKVASGVPARFSGSGSGTDFTLTINPVEANDTANYYCQQWRSYPLTFGQGTKLEIKGGGGSGGGGSGASGAGGGGSGGGGSQVQLVQSGAEVKKPGASVKVSCKASGYTFTDYVVHWVRQAPGQGLEWMGYINPYNDGTKYNEKFKGRVTMTRDTSISTAYMELSRLRSDDTAVYYCARDYRYEVYGMDYWGQGTLVTVSSGGGGSAAAKPLPEVTDEYARGGPEQKLISEEDLNSAVDHHHHHH
- EC50, 51Cr-release lysis of MOLM-13 by UniCAR T cells, e:t 1:1, 24 h; combination of αCD33 TM + αCD123 TM [1]: 70.2 pmol
- EC50, 51Cr-release lysis of OCI-AML3 by UniCAR T cells, e:t 1:1, 24 h; combination of αCD33 TM + αCD123 TM [1]: 80.2 pmol

B2: bi-specific CD33-CD123 target module (bispecific antibody)
chain: DAAQPAEVQLQQSGPELVKPGASVKMSCKASGYTFTDYYMKWVKQSHGKSLEWIGDIIPSNGATFYNQKFKGKATLTVDRSSSTAYMHLNSLTSEDSAVYYCTRSHLLRASWFAYWGQGTLVTVSAASGGGGSGGGGSGGGGSDFVMTQSPSSLTVTAGEKVTMSCKSSQSLLNSGNQKNYLTWYLQKPGQPPKLLIYWASTRESGVPDRFTGSGSGTDFTLTISSVQAEDLAVYYCQNDYSYPYTFGGGTKLEIKAAAKPLPEVTDEYARGQVQLVQSGAEVKKPGASVKVSCKASGYTFTDYVVHWVRQAPGQGLEWMGYINPYNDGTKYNEKFKGRVTMTRDTSISTAYMELSRLRSDDTAVYYCARDYRYEVYGMDYWGQGTLVTVSSGGGGSGGGGSGGGGSDIVLTQSPASLAVSPGQRATITCTASSSVNYIHWYQQKPGQPPKLLIYDTSKVASGVPARFSGSGSGTDFTLTINPVEANDTANYYCQQWRSYPLTFGQGTKLEIKGPEQKLISEEDLNSAVDHHHHHH
- EC50, 51Cr-release lysis of MOLM-13 by UniCAR T cells, e:t 1:1, 24 h; bispecific TM [1]: 2.9 pmol
- EC50, 51Cr-release lysis of OCI-AML3 by UniCAR T cells, e:t 1:1, 24 h; bispecific TM [1]: 11.7 pmol
- EC50, 51Cr-release lysis of MOLM-13 by UniCAR T cells, e:t 1:1, 24 h; bispecific TM [2]: 2.9 pmol
- EC50, 51Cr-release lysis of OCI-AML3 by UniCAR T cells, e:t 1:1, 24 h; bispecific TM [2]: 11.7 pmol

- Half maximal effective dosis (EC50), 51Cr-release lysis of PC3 cells expressing PSMA by UniCAR T cells, e:t 5:1 [3]: ~12 pmol
B3: target module specific for PSMA (scFv)
scFv: DAAQPAEVQLQQSGPELVKPGTSVRISCKTSGYTFTEYTIHWVKQSHGKSLEWIGNINPNNGGTTYNQKFEDKATLTVDKSSSTAYMELRSLTSEDSAVYYCAAGWNFDYWGQGTTVTVSSGGGGSGGGGSGGGGSDIVMTQSHKFMSTSVGDRVSIICKASQDVGTAVDWYQQKPGQSPKLLIYWASTRHTGVPDRFTGSGSGTDFTLTITNVQSEDLADYFCQQYNSYPLTFGAGTMLDLKAAAKPLPEVTDEYARGGPEQKLISEEDLNSAVDHHHHHH

- Half maximal effective dosis (EC50), 51Cr-release lysis of PC3 cells expressing PSCA by UniCAR T cells, e:t 5:1 [4]: ~12 pmol
B4: target module specific for PSCA (scFv)
scFv: DAAQPAGSDIQMTQSPSSLSASVGDRVTITCGTSQDINNYLNWYQQKPGKVPKLLIYYTSRLHSGVPSRFSGSGSGTDFTLTISSLQPEDVATYYCQQSKTLPWTFGGGTQLTVLGGGGSGGGGSGASAAGGGGSGGGGSQVQLVESGGGLVKPGGSLRLSCAASGFTFSSYSMSWIRQAPGKGLEWVSYINDSGGSTFYPDTVKGRFTISRDNAKNSLYLQMNSLRAEDTAVYYCARRMYYGNSHWHFDVWGQGTTVTVSSGGGGSAAAKPLPEVTDEYARGGPEQKLISEEDLNSAVDHHHHHH

- EC50, lysis of MOLM-13 by UniCAR T cells, e:t 1:1 [2]: 45 pmol
B5: target module specific for CD123 (scFv)
scFv: DAAQPAEVQLQQSGPELVKPGASVKMSCKASGYTFTDYYMKWVKQSHGKSLEWIGDIIPSNGATFYNQKFKGKATLTVDRSSSTAYMHLNSLTSEDSAVYYCTRSHLLRASWFAYWGQGTLVTVSAASGGGGSGGGGSGGGGSDFVMTQSPSSLTVTAGEKVTMSCKSSQSLLNSGNQKNYLTWYLQKPGQPPKLLIYWASTRESGVPDRFTGSGSGTDFTLTISSVQAEDLAVYYCQNDYSYPYTFGGGTKLEIKGGGGSAAAKPLPEVTDEYARGGPEQKLISEEDLNSAVDHHHHHH
- EC50, 51Cr-release lysis of MOLM-13 by UniCAR T cells, e:t 1:1, 24 h; combination of αCD33 TM + αCD123 TM [2]: 70.2 pmol
- EC50, 51Cr-release lysis of OCI-AML3 by UniCAR T cells, e:t 1:1, 24 h; combination of αCD33 TM + αCD123 TM [2]: 80.2 pmol
